Test results from patent publication US7070771.

Target: CD40 (human, on CLL B cells and CD40-positive tumor cell lines) (human) (UniProt P25942)
Assay: cell-based or functional assay

UniProt P25942, sequence (P25942 21-277): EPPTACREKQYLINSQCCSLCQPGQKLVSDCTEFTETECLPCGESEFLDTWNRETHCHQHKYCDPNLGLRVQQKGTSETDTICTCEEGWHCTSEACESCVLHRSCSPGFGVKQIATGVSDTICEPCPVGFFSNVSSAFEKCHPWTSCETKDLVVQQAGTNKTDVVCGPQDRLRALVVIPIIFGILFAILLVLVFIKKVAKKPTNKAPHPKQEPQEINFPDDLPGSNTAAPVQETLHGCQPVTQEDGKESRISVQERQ

Question: How did the % positive cells, Human CD80 (CLL cells) turn out when “G28-5 (an anti-CD40 monoclonal antibody)” was run?
Answer: Its % positive cells, Human CD80 (CLL cells) is 26.7%.
